From patent US20160113911A1, “METHODS AND COMPOSITIONS FOR THE TREATMENT OF CANCER” (THE GENERAL HOSPITAL CORPORATION, priority 2013, published 2016)

Experiments:
[1] = test system: H3K9me3; assay: H3K9 demethylase activity of KDM4 variants in transfected cells; assay type: cell-based; parameters: key: + indicates active; − indicates inactive; +/− indicates partial acitivty; settings: KDM4A mutations
[2] = test system: H3K36me3; assay: H3K36 demethylase activity of KDM4A variants in transfected cells (immunofluorescence); assay type: cell-based; parameters: key: + indicates active; − indicates inactive; +/− indicates partial acitivty; settings: KDM4A mutations
Method: The indicated NHF-tagged KDM4A deletion constructs were transfected into RPE cells grown on coverslips in 10 cm dishes using X-tremeGENE 9™ DNA transfection reagent (Roche). H3K36me3 and subcellular localization were assayed by examining transfected cells (positive for HA staining; HA.11 Covance) following fixation in 3.7% PFA in PBS (Whetstine et al., 2006).
All immunofluorescence experiments were performed as in (Black et al., 2013). For the localization experiment a minimum of 50 cells were blinded and scored. For the catalytic activity, cells overexpressing a high level of KDM4A WT or SNP-A482 were analyzed in a non quantitative manner.

Row | Molecule | H3k9 Demethylase Activity [1] | H3k36 Demethylase Activity [2]
1 | 2A-I87V: KDM4A mutation (protein) MASESETLNPSARIMTFYPTMEEFRNFSRYIAYIESQGAHRAGLAKVVPPKEWKPRASYDDIDDLVIPAPIQQLVTGQSGLFTQYNVQKKAMTVREFRKIANSDKYCTPRYSEFEELERKYWKNLTFNPPIYGADVNGTLYEKHVDEWNIGRLRTILDLVEKESGITIEGVNTPYLYFGMWKTSFAWHTEDMDLYSINYLHFGEPKSWYSVPPEHGKRLERLAKGFFPGSAQSCEAFLRHKMTLISPLMLKKYGIPFDKVTQEAGEFMITFPYGYHAGFNHGFNCAESTNFATRRWIEYGKQAVLCSCRKDMVKISMDVFVRKFQPERYKLWKAGKDNTVIDHTLPTPEAAEFLKESELPPRAGNEEECPEEDMEGVEDGEEGDLKTSLAKHRIGTKRHRVCLEIPQEVSQSELFPKEDLSSEQYEMTECPAALAPVRPTHSSVRQVEDGLTFPDYSDSTEVKFEELKNVKLEEEDEEEEQAAAALDLSVNPASVGGRLVFSGSKKKSSSSLGSGSSRDSISSDSETSEPLSCRAQGQTGVLTVHSYAKGDGRVTVGEPCTRKKGSAARSFSERELAEVADEYMFSLEENKKSKGRRQPLSKLPRHHPLVLQECVSDDETSEQLTPEEEAEETEAWAKPLSQLWQNRPPNFEAEKEFNETMAQQAPHCAVCMIFQTYHQVEFGGFNQNCGNASDLAPQKQRTKPLIPEMCFTSTGCSTDINLSTPYLEEDGTSILVSCKKCSVRVHASCYGVPPAKASEDWMCSRCSANALEEDCCLCSLRGGALQRANDDRWVHVSCAVAILEARFVNIAERSPVDVSKIPLPRFKLKCIFCKKRRKRTAGCCVQCSHGRCPTAFHVSCAQAAGVMMQPDDWPFVVFITCFRHKIPNLERAKGALQSITAGQKVISKHKNGRFYQCEVVRLTTETFYEVNFDDGSFSDNLYPEDIVSQDCLQFGPPAEGEVVQVRWTDGQVYGAKFVASHPIQMYQVEFEDGSQLVVKRDDVYTLDEELPKRVKSRLSVASDMRFNEIFTEKEVKQEKKRQRVINSRYREDYIEPALYRAIME | + | +
2 | 2A-E113K: KDM4A mutation (protein) MASESETLNPSARIMTFYPTMEEFRNFSRYIAYIESQGAHRAGLAKVVPPKEWKPRASYDDIDDLVIPAPIQQLVTGQSGLFTQYNIQKKAMTVREFRKIANSDKYCTPRYSKFEELERKYWKNLTFNPPIYGADVNGTLYEKHVDEWNIGRLRTILDLVEKESGITIEGVNTPYLYFGMWKTSFAWHTEDMDLYSINYLHFGEPKSWYSVPPEHGKRLERLAKGFFPGSAQSCEAFLRHKMTLISPLMLKKYGIPFDKVTQEAGEFMITFPYGYHAGFNHGFNCAESTNFATRRWIEYGKQAVLCSCRKDMVKISMDVFVRKFQPERYKLWKAGKDNTVIDHTLPTPEAAEFLKESELPPRAGNEEECPEEDMEGVEDGEEGDLKTSLAKHRIGTKRHRVCLEIPQEVSQSELFPKEDLSSEQYEMTECPAALAPVRPTHSSVRQVEDGLTFPDYSDSTEVKFEELKNVKLEEEDEEEEQAAAALDLSVNPASVGGRLVFSGSKKKSSSSLGSGSSRDSISSDSETSEPLSCRAQGQTGVLTVHSYAKGDGRVTVGEPCTRKKGSAARSFSERELAEVADEYMFSLEENKKSKGRRQPLSKLPRHHPLVLQECVSDDETSEQLTPEEEAEETEAWAKPLSQLWQNRPPNFEAEKEFNETMAQQAPHCAVCMIFQTYHQVEFGGFNQNCGNASDLAPQKQRTKPLIPEMCFTSTGCSTDINLSTPYLEEDGTSILVSCKKCSVRVHASCYGVPPAKASEDWMCSRCSANALEEDCCLCSLRGGALQRANDDRWVHVSCAVAILEARFVNIAERSPVDVSKIPLPRFKLKCIFCKKRRKRTAGCCVQCSHGRCPTAFHVSCAQAAGVMMQPDDWPFVVFITCFRHKIPNLERAKGALQSITAGQKVISKHKNGRFYQCEVVRLTTETFYEVNFDDGSFSDNLYPEDIVSQDCLQFGPPAEGEVVQVRWTDGQVYGAKFVASHPIQMYQVEFEDGSQLVVKRDDVYTLDEELPKRVKSRLSVASDMRFNEIFTEKEVKQEKKRQRVINSRYREDYIEPALYRAIME | +/− | +
3 | 2A-K123I: KDM4A mutation (protein) MASESETLNPSARIMTFYPTMEEFRNFSRYIAYIESQGAHRAGLAKVVPPKEWKPRASYDDIDDLVIPAPIQQLVTGQSGLFTQYNIQKKAMTVREFRKIANSDKYCTPRYSEFEELERKYWINLTFNPPIYGADVNGTLYEKHVDEWNIGRLRTILDLVEKESGITIEGVNTPYLYFGMWKTSFAWHTEDMDLYSINYLHFGEPKSWYSVPPEHGKRLERLAKGFFPGSAQSCEAFLRHKMTLISPLMLKKYGIPFDKVTQEAGEFMITFPYGYHAGFNHGFNCAESTNFATRRWIEYGKQAVLCSCRKDMVKISMDVFVRKFQPERYKLWKAGKDNTVIDHTLPTPEAAEFLKESELPPRAGNEEECPEEDMEGVEDGEEGDLKTSLAKHRIGTKRHRVCLEIPQEVSQSELFPKEDLSSEQYEMTECPAALAPVRPTHSSVRQVEDGLTFPDYSDSTEVKFEELKNVKLEEEDEEEEQAAAALDLSVNPASVGGRLVFSGSKKKSSSSLGSGSSRDSISSDSETSEPLSCRAQGQTGVLTVHSYAKGDGRVTVGEPCTRKKGSAARSFSERELAEVADEYMFSLEENKKSKGRRQPLSKLPRHHPLVLQECVSDDETSEQLTPEEEAEETEAWAKPLSQLWQNRPPNFEAEKEFNETMAQQAPHCAVCMIFQTYHQVEFGGFNQNCGNASDLAPQKQRTKPLIPEMCFTSTGCSTDINLSTPYLEEDGTSILVSCKKCSVRVHASCYGVPPAKASEDWMCSRCSANALEEDCCLCSLRGGALQRANDDRWVHVSCAVAILEARFVNIAERSPVDVSKIPLPRFKLKCIFCKKRRKRTAGCCVQCSHGRCPTAFHVSCAQAAGVMMQPDDWPFVVFITCFRHKIPNLERAKGALQSITAGQKVISKHKNGRFYQCEVVRLTTETFYEVNFDDGSFSDNLYPEDIVSQDCLQFGPPAEGEVVQVRWTDGQVYGAKFVASHPIQMYQVEFEDGSQLVVKRDDVYTLDEELPKRVKSRLSVASDMRFNEIFTEKEVKQEKKRQRVINSRYREDYIEPALYRAIME |  | +
4 | 2A-R152W*: KDM4A mutation (protein, UniProt O75164 2-1064, looked up, variant R152W) Lysine-specific demethylase 4A: ASESETLNPSARIMTFYPTMEEFRNFSRYIAYIESQGAHRAGLAKVVPPKEWKPRASYDDIDDLVIPAPIQQLVTGQSGLFTQYNIQKKAMTVREFRKIANSDKYCTPRYSEFEELERKYWKNLTFNPPIYGADVNGTLYEKHVDEWNIGWLRTILDLVEKESGITIEGVNTPYLYFGMWKTSFAWHTEDMDLYSINYLHFGEPKSWYSVPPEHGKRLERLAKGFFPGSAQSCEAFLRHKMTLISPLMLKKYGIPFDKVTQEAGEFMITFPYGYHAGFNHGFNCAESTNFATRRWIEYGKQAVLCSCRKDMVKISMDVFVRKFQPERYKLWKAGKDNTVIDHTLPTPEAAEFLKESELPPRAGNEEECPEEDMEGVEDGEEGDLKTSLAKHRIGTKRHRVCLEIPQEVSQSELFPKEDLSSEQYEMTECPAALAPVRPTHSSVRQVEDGLTFPDYSDSTEVKFEELKNVKLEEEDEEEEQAAAALDLSVNPASVGGRLVFSGSKKKSSSSLGSGSSRDSISSDSETSEPLSCRAQGQTGVLTVHSYAKGDGRVTVGEPCTRKKGSAARSFSERELAEVADEYMFSLEENKKSKGRRQPLSKLPRHHPLVLQECVSDDETSEQLTPEEEAEETEAWAKPLSQLWQNRPPNFEAEKEFNETMAQQAPHCAVCMIFQTYHQVEFGGFNQNCGNASDLAPQKQRTKPLIPEMCFTSTGCSTDINLSTPYLEEDGTSILVSCKKCSVRVHASCYGVPPAKASEDWMCSRCSANALEEDCCLCSLRGGALQRANDDRWVHVSCAVAILEARFVNIAERSPVDVSKIPLPRFKLKCIFCKKRRKRTAGCCVQCSHGRCPTAFHVSCAQAAGVMMQPDDWPFVVFITCFRHKIPNLERAKGALQSITAGQKVISKHKNGRFYQCEVVRLTTETFYEVNFDDGSFSDNLYPEDIVSQDCLQFGPPAEGEVVQVRWTDGQVYGAKFVASHPIQMYQVEFEDGSQLVVKRDDVYTLDEELPKRVKSRLSVASDMRFNEIFTEKEVKQEKKRQRVINSRYREDYIEPALYRAIME | + | +
5 | 2A-V919M: KDM4A mutation (protein) MASESETLNPSARIMTFYPTMEEFRNFSRYIAYIESQGAHRAGLAKVVPPKEWKPRASYDDIDDLVIPAPIQQLVTGQSGLFTQYNIQKKAMTVREFRKIANSDKYCTPRYSEFEELERKYWKNLTFNPPIYGADVNGTLYEKHVDEWNIGRLRTILDLVEKESGITIEGVNTPYLYFGMWKTSFAWHTEDMDLYSINYLHFGEPKSWYSVPPEHGKRLERLAKGFFPGSAQSCEAFLRHKMTLISPLMLKKYGIPFDKVTQEAGEFMITFPYGYHAGFNHGFNCAESTNFATRRWIEYGKQAVLCSCRKDMVKISMDVFVRKFQPERYKLWKAGKDNTVIDHTLPTPEAAEFLKESELPPRAGNEEECPEEDMEGVEDGEEGDLKTSLAKHRIGTKRHRVCLEIPQEVSQSELFPKEDLSSEQYEMTECPAALAPVRPTHSSVRQVEDGLTFPDYSDSTEVKFEELKNVKLEEEDEEEEQAAAALDLSVNPASVGGRLVFSGSKKKSSSSLGSGSSRDSISSDSETSEPLSCRAQGQTGVLTVHSYAKGDGRVTVGEPCTRKKGSAARSFSERELAEVADEYMFSLEENKKSKGRRQPLSKLPRHHPLVLQECVSDDETSEQLTPEEEAEETEAWAKPLSQLWQNRPPNFEAEKEFNETMAQQAPHCAVCMIFQTYHQVEFGGFNQNCGNASDLAPQKQRTKPLIPEMCFTSTGCSTDINLSTPYLEEDGTSILVSCKKCSVRVHASCYGVPPAKASEDWMCSRCSANALEEDCCLCSLRGGALQRANDDRWVHVSCAVAILEARFVNIAERSPVDVSKIPLPRFKLKCIFCKKRRKRTAGCCVQCSHGRCPTAFHVSCAQAAGVMMQPDDWPFVVFITCFRHKIPNLERAKGALQSITAGQKVISKHKNGRFYQCEMVRLTTETFYEVNFDDGSFSDNLYPEDIVSQDCLQFGPPAEGEVVQVRWTDGQVYGAKFVASHPIQMYQVEFEDGSQLVVKRDDVYTLDEELPKRVKSRLSVASDMRFNEIFTEKEVKQEKKRQRVINSRYREDYIEPALYRAIME |  | +
